Reference: patent publication US20150258192A1, “COMPOSITIONS AND METHODS FOR PREVENTING OR TREATING CHRONIC LUNG ALLOGRAFT DYSFUNCTION (CLAD) AND IDIOPATHIC PULMONARY FIBROSIS (IPF)” (priority 2014, published 2015)
No end group written: not given here.

Key:
Assay in all cases: Kinase Profiling Assay
Type in all cases: biochemical
Settings in all cases: peptide 100 μM
SRPK2(h) = target: T1, SRPK2(h) (Homo sapiens, UniProt P78362)
T1 construct: purchased Millipore
Outline: (§1)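 In this 266-kinase specificity panel, every measurement was duplicated. Transfer of labeled phosphate from ATP to a cationic substrate was quantified after the substrate adhered to an anionic filter membrane and was scintillation-counted, then related to a full-activity control.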

CaMKIIβ(h) = CaMKIIβ(h) (Homo sapiens, UniProt Q13554)
Outline: as §1

TAK1(h) = target: T2, TAK1(h) (Homo sapiens, UniProt O43318)
T2 construct: purchased Millipore
T2 sequence (O43318 1-303 limits assumed): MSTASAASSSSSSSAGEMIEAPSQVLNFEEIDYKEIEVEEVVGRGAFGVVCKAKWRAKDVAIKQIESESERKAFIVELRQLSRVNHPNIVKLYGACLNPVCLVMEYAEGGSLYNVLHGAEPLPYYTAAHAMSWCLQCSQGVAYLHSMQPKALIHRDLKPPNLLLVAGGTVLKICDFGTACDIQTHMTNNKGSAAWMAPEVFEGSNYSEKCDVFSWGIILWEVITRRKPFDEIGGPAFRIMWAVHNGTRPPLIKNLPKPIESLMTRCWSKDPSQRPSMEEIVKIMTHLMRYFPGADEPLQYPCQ
Outline: as §1

PKCι(h) = target: T3, PKCι(h) (Homo sapiens, UniProt P41743)
T3 sequence (P41743 1-596): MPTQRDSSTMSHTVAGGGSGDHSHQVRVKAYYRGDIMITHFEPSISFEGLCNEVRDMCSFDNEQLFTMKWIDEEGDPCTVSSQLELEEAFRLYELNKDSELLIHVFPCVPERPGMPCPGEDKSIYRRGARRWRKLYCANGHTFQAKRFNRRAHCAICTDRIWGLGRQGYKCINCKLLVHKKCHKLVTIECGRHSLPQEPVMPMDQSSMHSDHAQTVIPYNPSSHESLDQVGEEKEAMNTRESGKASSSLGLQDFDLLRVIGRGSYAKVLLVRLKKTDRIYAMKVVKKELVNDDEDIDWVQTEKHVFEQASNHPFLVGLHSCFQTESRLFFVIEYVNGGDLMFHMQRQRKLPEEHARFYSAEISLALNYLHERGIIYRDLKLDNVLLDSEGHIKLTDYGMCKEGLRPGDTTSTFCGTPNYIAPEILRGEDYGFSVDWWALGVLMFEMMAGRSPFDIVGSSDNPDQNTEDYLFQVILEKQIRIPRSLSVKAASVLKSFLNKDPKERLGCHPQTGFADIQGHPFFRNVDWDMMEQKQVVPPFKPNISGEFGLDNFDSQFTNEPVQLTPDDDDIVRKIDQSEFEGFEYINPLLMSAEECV
Outline: as §1

TAO1(h) = target: T4, TAO1(h) (Homo sapiens, UniProt Q7L7X3)
T4 construct: purchased Millipore
T4 sequence (Q7L7X3 1-1001): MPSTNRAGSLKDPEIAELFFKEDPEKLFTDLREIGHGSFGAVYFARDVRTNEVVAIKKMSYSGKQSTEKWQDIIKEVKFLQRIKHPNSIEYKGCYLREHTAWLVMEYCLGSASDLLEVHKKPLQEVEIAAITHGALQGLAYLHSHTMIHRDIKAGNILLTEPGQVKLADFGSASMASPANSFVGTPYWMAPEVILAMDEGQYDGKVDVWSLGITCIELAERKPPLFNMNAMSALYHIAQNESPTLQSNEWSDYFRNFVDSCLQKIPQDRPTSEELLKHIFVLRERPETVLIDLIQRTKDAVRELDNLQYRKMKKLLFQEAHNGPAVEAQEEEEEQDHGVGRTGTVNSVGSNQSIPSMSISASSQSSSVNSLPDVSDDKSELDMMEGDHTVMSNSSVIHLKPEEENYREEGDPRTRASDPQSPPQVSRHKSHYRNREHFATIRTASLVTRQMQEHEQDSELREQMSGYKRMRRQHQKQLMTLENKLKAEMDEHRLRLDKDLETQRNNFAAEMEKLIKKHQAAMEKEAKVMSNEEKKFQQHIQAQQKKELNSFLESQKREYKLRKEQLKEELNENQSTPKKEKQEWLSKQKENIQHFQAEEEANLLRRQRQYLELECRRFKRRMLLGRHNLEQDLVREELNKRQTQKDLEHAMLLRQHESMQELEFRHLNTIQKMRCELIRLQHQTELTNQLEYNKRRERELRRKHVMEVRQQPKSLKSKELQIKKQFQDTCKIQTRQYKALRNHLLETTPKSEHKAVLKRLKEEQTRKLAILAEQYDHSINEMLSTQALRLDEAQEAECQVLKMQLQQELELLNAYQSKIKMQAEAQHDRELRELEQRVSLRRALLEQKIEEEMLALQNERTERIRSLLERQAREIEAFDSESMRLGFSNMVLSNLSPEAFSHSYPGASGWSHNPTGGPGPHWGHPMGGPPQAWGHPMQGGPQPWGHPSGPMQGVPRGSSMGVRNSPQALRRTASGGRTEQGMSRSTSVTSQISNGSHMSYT
Outline: as §1

CaMKIIβ(h), sequence (Q13554 whole entry): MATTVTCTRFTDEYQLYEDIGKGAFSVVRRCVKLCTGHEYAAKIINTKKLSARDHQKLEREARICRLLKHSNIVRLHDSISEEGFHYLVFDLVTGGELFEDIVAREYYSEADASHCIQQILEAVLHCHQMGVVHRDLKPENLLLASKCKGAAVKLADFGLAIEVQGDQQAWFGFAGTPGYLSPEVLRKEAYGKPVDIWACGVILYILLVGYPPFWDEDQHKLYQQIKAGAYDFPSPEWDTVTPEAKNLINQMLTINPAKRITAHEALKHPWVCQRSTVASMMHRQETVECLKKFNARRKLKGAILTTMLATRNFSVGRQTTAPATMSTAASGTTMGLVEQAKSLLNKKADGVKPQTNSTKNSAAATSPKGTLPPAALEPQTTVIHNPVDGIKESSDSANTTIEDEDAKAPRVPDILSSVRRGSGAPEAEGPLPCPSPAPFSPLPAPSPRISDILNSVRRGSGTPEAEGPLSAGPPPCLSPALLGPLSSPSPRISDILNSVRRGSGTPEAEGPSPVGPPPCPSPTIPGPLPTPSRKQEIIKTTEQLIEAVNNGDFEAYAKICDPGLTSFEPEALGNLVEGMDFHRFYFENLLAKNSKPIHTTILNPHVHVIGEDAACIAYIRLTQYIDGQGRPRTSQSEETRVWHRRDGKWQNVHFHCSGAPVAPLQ
T1 sequence (P78362 whole entry): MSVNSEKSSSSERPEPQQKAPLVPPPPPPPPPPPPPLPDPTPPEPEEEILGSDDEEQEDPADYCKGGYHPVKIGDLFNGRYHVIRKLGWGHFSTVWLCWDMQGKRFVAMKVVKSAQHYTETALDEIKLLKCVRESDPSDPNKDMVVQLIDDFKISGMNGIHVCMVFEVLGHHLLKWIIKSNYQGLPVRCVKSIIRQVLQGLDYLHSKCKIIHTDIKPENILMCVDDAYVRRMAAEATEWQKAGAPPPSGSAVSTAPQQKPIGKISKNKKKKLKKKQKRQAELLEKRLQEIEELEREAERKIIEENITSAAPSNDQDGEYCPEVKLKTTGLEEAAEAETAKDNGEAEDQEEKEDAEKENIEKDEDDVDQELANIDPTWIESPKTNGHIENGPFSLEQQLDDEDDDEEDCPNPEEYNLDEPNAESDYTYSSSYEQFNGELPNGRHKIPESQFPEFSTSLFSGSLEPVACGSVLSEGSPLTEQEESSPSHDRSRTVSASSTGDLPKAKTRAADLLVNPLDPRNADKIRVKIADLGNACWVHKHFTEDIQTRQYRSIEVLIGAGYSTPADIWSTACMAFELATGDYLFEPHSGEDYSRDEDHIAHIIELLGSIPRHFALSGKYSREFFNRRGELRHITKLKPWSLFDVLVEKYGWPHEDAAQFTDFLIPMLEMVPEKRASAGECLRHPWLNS

Sequence | % activity (SRPK2(h)) [%] | % activity (CaMKIIβ(h)) [%] | % activity (TAK1(h)) [%] | % activity (PKCι(h)) [%] | % activity (TAO1(h)) [%]
YARAAARQARAKALNRQLGVA (Mammal) [MMI-0200] | 100 | 53 | 124 | 97 | 
YARAAARQARAKALARQLGVAA [MMI-0100] | 92 |  |  | 110 | 99
HRRIKAWLKKIKALARQLGVAA (Mammal) [MMI-0500] | 80 | 3 |  | 7 | 24
KAFAKLAARLYRKALARQLGVAA [MMI-0400] | 97 | 11 | 177 | 46 | 73
FAKLAARLYRKALARQLGVAA [MMI-0300] |  | 2 | 122 | 68 | 82
